Source: US20210238308A1

Columns and labels:
Experiment in all cases: SPR, Protein L capture
human FcRn (human) = human FcRn (human) (UniProt P55899)
[1] = target: PRYSPRY domain of human TRIM21 with N-terminal 6xHis tag (human)
[2] = target: PRYSPRY domain of mouse TRIM21 with N-terminal 6xHis tag (mouse)
Sequence of PRYSPRY domain of mouse TRIM21 with N-terminal 6xHis tag (mouse) (chain, as listed by the source limits assumed): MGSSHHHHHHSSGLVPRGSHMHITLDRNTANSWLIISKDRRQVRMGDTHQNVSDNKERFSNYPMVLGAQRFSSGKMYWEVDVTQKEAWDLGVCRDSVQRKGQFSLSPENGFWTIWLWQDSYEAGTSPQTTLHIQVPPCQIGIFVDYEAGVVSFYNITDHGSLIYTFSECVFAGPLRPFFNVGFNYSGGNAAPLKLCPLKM

Sequence of UniProt P55899 (P55899 24-290 limits assumed, form in doubt, chain 1 of 2): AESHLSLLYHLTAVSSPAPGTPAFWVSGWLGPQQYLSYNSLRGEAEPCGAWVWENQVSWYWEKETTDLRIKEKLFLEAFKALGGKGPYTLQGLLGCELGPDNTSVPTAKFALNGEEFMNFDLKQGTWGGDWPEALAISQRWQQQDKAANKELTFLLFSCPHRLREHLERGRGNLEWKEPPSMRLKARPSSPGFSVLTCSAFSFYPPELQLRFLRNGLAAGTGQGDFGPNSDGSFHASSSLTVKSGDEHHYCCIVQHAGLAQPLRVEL
Sequence of UniProt P55899 (chain, as listed by the source limits assumed, form in doubt, chain 2 of 2): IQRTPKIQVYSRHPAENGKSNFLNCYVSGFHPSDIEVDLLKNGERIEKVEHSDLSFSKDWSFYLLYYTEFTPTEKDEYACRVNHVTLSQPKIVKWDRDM
Sequence of PRYSPRY domain of human TRIM21 with N-terminal 6xHis tag (human) (chain, as listed by the source limits assumed): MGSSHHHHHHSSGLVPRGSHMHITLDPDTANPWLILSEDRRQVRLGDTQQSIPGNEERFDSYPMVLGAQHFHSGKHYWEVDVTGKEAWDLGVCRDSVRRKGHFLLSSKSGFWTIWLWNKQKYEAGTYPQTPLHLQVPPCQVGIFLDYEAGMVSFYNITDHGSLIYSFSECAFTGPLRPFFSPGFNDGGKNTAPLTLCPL

Row | Substance | hFcRn binding level ratio (variant/control antibody) (human FcRn (human)) | hTRIM21 binding level ratio (variant/control antibody) [1] | further results
1 | MRAH-G1d/MRAL-KT0 L432A (antibody) | 0.08 | – | –
2 | MRAH-G1d/MRAL-KT0 L309Q (antibody) | 0.09 | – | –
3 | MRAH-G1d/MRAL-KT0 L432R (antibody) | – | 0.099 | –
4 | MRAH-G1d/MRAL-KT0 E345K (antibody) | – | 0.096 | –
5 | MRAH-G1d/MRAL-KT0 N434H (antibody) | – | – | mTRIM21 binding level ratio (variant/control antibody) [2]: 0.097
